Experimental data from publication doi:10.1101/2019.12.16.876623 (bioRxiv, 2019).

T1: His-MBP-Cdc5 T238D (S. cerevisiae, UniProt P32562 1-705, T238D)
T1 sequence (looked up): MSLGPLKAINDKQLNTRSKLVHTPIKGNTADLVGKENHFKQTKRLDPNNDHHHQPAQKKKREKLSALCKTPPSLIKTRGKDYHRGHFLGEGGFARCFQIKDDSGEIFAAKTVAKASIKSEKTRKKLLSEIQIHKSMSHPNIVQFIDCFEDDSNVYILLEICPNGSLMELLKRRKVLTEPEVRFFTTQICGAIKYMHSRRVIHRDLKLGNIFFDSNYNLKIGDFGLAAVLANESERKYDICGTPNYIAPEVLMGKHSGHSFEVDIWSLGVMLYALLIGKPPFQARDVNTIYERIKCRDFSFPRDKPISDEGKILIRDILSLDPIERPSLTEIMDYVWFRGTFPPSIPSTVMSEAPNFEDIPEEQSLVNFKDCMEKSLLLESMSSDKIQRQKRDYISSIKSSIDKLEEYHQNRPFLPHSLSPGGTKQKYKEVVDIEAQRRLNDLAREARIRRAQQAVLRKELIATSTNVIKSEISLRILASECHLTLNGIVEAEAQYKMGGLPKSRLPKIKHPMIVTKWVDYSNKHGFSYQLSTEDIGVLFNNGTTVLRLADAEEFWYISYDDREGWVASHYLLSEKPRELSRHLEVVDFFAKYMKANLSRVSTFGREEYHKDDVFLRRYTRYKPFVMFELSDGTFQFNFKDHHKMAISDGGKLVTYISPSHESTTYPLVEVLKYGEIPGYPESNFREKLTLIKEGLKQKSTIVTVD

B1: Exo1-Flag (recombinant, untreated) (natural protein, yeast, UniProt P39875 1-702, looked up)
chain: MGIQGLLPQLKPIQNPVSLRRYEGEVLAIDGYAWLHRAACSCAYELAMGKPTDKYLQFFIKRFSLLKTFKVEPYLVFDGDAIPVKKSTESKRRDKRKENKAIAERLWACGEKKNAMDYFQKCVDITPEMAKCIICYCKLNGIRYIVAPFEADSQMVYLEQKNIVQGIISEDSDLLVFGCRRLITKLNDYGECLEICRDNFIKLPKKFPLGSLTNEEIITMVCLSGCDYTNGIPKVGLITAMKLVRRFNTIERIILSIQREGKLMIPDTYINEYEAAVLAFQFQRVFCPIRKKIVSLNEIPLYLKDTESKRKRLYACIGFVIHRETQKKQIVHFDDDIDHHLHLKIAQGDLNPYDFHQPLANREHKLQLASKSNIEFGKTNTTNSEAKVKPIESFFQKMTKLDHNPKVANNIHSLRQAEDKLTMAIKRRKLSNANVVQETLKDTRSKFFNKPSMTVVENFKEKGDSIQDFKEDTNSQSLEEPVSESQLSTQIPSSFITTNLEDDDNLSEEVSEVVSDIEEDRKNSEGKTIGNEIYNTDDDGDGDTSEDYSETAESRVPTSSTTSFPGSSQRSISGCTKVLQKFRYSSSFSGVNANRQPLFPRHVNQKSRGMVYVNQNRDDDCDDNDGKNQITQRPSLRKSLIGARSQRIVIDMKSVDERKSFNSSPILHEESKKRDIETTKSSQARPAVRSISLLSQFVYKGK
B2: Exo1-Flag (recombinant, treated with CDK1-cyclin B) (natural protein, yeast, UniProt P39875 1-702, looked up)
chain: B1 chain
modifications: phosphorylated in vitro with CDK1-cyclin B; sites not stated
B3: Exo1-Flag (recombinant, treated with lambda phosphatase) (natural protein, yeast, UniProt P39875 1-702, looked up)
chain: B1 chain
modifications: dephosphorylated with lambda phosphatase

These binders were tested against T1, His-MBP-Cdc5 T238D (assay: pull-down).

Binding result, binds:
B1
B2
B3
